Test results: patent US20130115279A1 (IMMUNOCELLULAR THERAPEUTICS, published 2013)

Tests used:
HLA-A*0201 [1] = target: T1, HLA-A*0201 (human); experiment: REVEAL off rate analysis of peptide-MHC pentamers, 37 C, 0, 2 and 24 h
T1 construct: Class I MHC molecule of the ProImmune REVEAL assay; also called HLA-A2
Procedure: (§1) The pentamers were subjected to incubation and analysis at 37° C. to determine the stability of peptide-MHC complexes. Off-rates of the complexes were measured by REVEAL™ off rate analysis (ProImmune Ltd., Oxford, UK) after 0, 2, and 24 hours of incubation at 37° C.

HLA-A*0201 [2] = target: T1, HLA-A*0201; experiment: REVEAL MHC binding assay, incorporation into MHC relative to positive control peptide
HLA-A*0301 [3] = target: T2, HLA-A*0301 (human); experiment: as above
T2 construct: Class I MHC molecule of the ProImmune REVEAL assay; also called HLA-A3

HLA-A*0301 [4] = target: T2, HLA-A*0301; experiment: REVEAL off rate analysis of peptide-MHC pentamers, 37 C, 0, 2 and 24 h
Procedure: as §1

HLA-A*0101 [5] = target: T3, HLA-A*0101 (human); experiment: as above
T3 construct: Class I MHC molecule of the ProImmune REVEAL assay; also called HLA-A1
Procedure: as §1

HLA-A*0101 [6] = target: T3, HLA-A*0101; experiment: REVEAL MHC binding assay, incorporation into MHC relative to positive control peptide
HLA-A*0301 [7] = target: T2, HLA-A*0301; experiment: REVEAL off rate analysis of peptide-MHC pentamers, 37 C, 0, 2 and 24 h; * 24 h interval too short for an accurate value
Procedure: as §1

HLA-A*0201 [8] = target: T1, HLA-A*0201; experiment: as above
Procedure: as §1

| Binder | t1/2 (HLA-A*0201 [1]) | % Positive Control (HLA-A*0201 [2]) | other results |
| --- | --- | --- | --- |
| LVLGSLLLL (synthetic nine-residue peptide of human CD133 (ProImmune)) [CD133 peptide LVLGSLLLL (SEQ ID NO:17)] | 8.25 h | 102% |  |
| NLFWFGIGK (synthetic nine-residue peptide of human CD133 (ProImmune)) [CD133 peptide NLFWFGIGK (SEQ ID NO:9)] |  |  | % Positive Control (HLA-A*0301 [3]): 53.1%; t1/2 (HLA-A*0301 [4]): 3.35 h |
| SSELESLKV (synthetic nine-residue peptide of human CD133 (ProImmune)) [CD133 peptide SSELESLKV (SEQ ID NO:2)] |  |  | t1/2 (HLA-A*0101 [5]): 0.46 h; % Positive Control (HLA-A*0101 [6]): 74.1% |
| RTRIKRSRK (synthetic nine-residue peptide of human CD133 (ProImmune)) [CD133 peptide RTRIKRSRK (SEQ ID NO:7)] |  |  | % Positive Control (HLA-A*0301 [3]): 87.3%; t1/2 (HLA-A*0301 [4]): 23.9 h |
| LSSSLTSVK (synthetic nine-residue peptide of human CD133 (ProImmune)) [CD133 peptide LSSSLTSVK (SEQ ID NO:8)] |  |  | % Positive Control (HLA-A*0301 [3]): 52.5%; t1/2 (HLA-A*0301 [4]): 1.8 h |
| AVDVFLCSY (synthetic nine-residue peptide of human CD133 (ProImmune)) [CD133 peptide AVDVFLCSY (SEQ ID NO:1)] |  |  | t1/2 (HLA-A*0101 [5]): 20.7 h; % Positive Control (HLA-A*0101 [6]): 58.6% |
| IIDPLNLFW (synthetic nine-residue peptide of human CD133 (ProImmune)) [CD133 peptide IIDPLNLFW (SEQ ID NO:3)] |  |  | t1/2 (HLA-A*0101 [5]): 0.35 h; % Positive Control (HLA-A*0101 [6]): 91.5% |
| KLFNKSKMK (synthetic nine-residue peptide of human CD133 (ProImmune)) [CD133 peptide KLFNKSKMK (SEQ ID NO:4)] |  |  | % Positive Control (HLA-A*0301 [3]): 80.8%; t1/2 (HLA-A*0301 [7]): 27.8 h |
| GLLERVTRI (synthetic nine-residue peptide of human CD133 (ProImmune)) [CD133 peptide GLLERVTRI (SEQ ID NO:20)] |  | 131% | t1/2 (HLA-A*0201 [8]): 74.3 h |
| NLLSFAYDL (synthetic nine-residue peptide of human CD133 (ProImmune)) [CD133 peptide NLLSFAYDL (SEQ ID NO:12)] | 1.83 h | 180% |  |
| ILAQYNTTK (synthetic nine-residue peptide of human CD133 (ProImmune)) [CD133 peptide ILAQYNTTK (SEQ ID NO:5)] |  |  | % Positive Control (HLA-A*0301 [3]): 46.6%; t1/2 (HLA-A*0301 [4]): 2.07 h |
| YLSGKLFNK (synthetic nine-residue peptide of human CD133 (ProImmune)) [CD133 peptide YLSGKLFNK (SEQ ID NO:6)] |  |  | % Positive Control (HLA-A*0301 [3]): 46.9% |
| FITNNTSSV (synthetic nine-residue peptide of human CD133 (ProImmune)) [CD133 peptide FITNNTSSV (SEQ ID NO:13)] | 20 h | 107% |  |
| ILCCVLGLL (synthetic nine-residue peptide of human CD133 (ProImmune)) [CD133 peptide ILCCVLGLL (SEQ ID NO:19)] | 5.63 h | 163% |  |
| ELVHIFLYV (synthetic nine-residue peptide of human CD133 (ProImmune)) [CD133 peptide ELVHIFLYV (SEQ ID NO:16)] | 6.86 h | 156% |  |
| FLLPALIFA (synthetic nine-residue peptide of human CD133 (ProImmune)) [CD133 peptide FLLPALIFA (SEQ ID NO:21)] |  | 93.6% | t1/2 (HLA-A*0201 [8]): > 120 h |

Further lines, with some results ahead:

| t1/2 (HLA-A*0201 [1]) | % Positive Control (HLA-A*0201 [2]) | Binder | other results |
| --- | --- | --- | --- |
| 3.51 h | 165% | RVLDTPYLL (synthetic nine-residue peptide of human CD133 (ProImmune)) [CD133 peptide RVLDTPYLL (SEQ ID NO:14)] |  |
| 15.5 h | 115% | SLDFAQNFI (synthetic nine-residue peptide of human CD133 (ProImmune)) [CD133 peptide SLDFAQNFI (SEQ ID NO:15)] |  |
| 2.37 h | 123% | SQLNSNPEL (synthetic nine-residue peptide of human CD133 (ProImmune)) [CD133 peptide SQLNSNPEL (SEQ ID NO:18)] |  |
|  | 113% | YLQWIEFSI (synthetic nine-residue peptide of human CD133 (ProImmune)) [CD133 peptide YLQWIEFSI (SEQ ID NO:11)] | t1/2 (HLA-A*0201 [8]): 83 h |
| 1.43 h | 309% | VLDEIKSMA (synthetic nine-residue peptide of human CD133 (ProImmune)) [CD133 peptide VLDEIKSMA (SEQ ID NO:10)] |  |
